Laboratory results: patent publication US20250236679A1 (Chugai, published 2025)

T1: human DLL3-Fc (human)
T1 construct: also called soluble DLL3 protein
T1 chain: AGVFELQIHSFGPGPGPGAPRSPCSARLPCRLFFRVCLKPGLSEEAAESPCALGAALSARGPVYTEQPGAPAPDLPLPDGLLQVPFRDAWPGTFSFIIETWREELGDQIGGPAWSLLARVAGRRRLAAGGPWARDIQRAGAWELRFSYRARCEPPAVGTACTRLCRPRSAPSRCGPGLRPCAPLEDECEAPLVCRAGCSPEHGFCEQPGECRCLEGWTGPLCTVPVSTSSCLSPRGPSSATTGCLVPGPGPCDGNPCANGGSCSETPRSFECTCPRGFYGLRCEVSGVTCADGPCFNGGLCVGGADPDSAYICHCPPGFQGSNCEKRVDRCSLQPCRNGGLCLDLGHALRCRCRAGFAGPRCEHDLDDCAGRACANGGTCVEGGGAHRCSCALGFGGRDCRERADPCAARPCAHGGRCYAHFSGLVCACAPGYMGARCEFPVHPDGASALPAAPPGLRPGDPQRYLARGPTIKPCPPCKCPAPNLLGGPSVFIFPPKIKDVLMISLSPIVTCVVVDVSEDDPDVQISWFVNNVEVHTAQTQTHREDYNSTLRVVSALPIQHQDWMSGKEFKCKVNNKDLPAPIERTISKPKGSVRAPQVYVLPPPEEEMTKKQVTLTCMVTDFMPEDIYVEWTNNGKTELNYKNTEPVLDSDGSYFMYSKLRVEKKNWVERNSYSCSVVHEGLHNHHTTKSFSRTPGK

T2: human DLL3 expressed on cells (human DLL3/BaF3) (human, UniProt Q9NYJ7 27-618)
T2 construct: Full-length human DLL3 on the membrane of transformed Ba/F3 cells; The ADCC assays also used NCI-H1184 small-cell lung cancer cells that express DLL3; also called Delta-like 3; NM_016941
T2 sequence: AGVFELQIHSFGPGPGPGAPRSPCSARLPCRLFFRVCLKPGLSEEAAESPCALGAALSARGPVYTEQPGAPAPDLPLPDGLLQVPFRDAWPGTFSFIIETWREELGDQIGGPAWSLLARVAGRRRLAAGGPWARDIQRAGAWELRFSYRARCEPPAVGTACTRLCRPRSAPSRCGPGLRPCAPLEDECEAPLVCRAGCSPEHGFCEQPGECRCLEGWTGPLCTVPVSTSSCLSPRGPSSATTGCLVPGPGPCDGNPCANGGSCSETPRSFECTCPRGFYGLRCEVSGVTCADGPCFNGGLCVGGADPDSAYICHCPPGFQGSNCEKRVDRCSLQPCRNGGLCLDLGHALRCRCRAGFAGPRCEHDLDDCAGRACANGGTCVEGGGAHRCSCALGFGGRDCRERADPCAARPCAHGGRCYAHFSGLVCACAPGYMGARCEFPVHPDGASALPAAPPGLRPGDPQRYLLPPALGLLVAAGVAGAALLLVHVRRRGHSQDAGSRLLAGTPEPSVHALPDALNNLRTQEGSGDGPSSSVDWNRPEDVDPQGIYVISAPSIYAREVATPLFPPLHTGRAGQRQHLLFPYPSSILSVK


Legend:
human DLL3-Fc = biological target: T1, human DLL3-Fc; test: ELISA, immobilized human DLL3-Fc
Protocol: The competition of a chimeric antibody and a mouse antibody for binding to the antigen molecule was analyzed by ELISA (FIG. 8 (b)). Human DLL3-Fc was added at 10 ng/well to a Nunc immunoplate and immobilized thereon. A mixture (final concentration: 50 ng/ml) of the chimeric antibody and the appropriately diluted mouse antibody was added to the DLL3-Fc protein-immobilized plate. The plate was incubated at room temperature for 1 hour and then washed. Alkaline phosphatase-labeled anti-human antibodies were added thereto and incubated. After the incubation, Sigma 104 was added thereto, and the absorbance was measured. The binding of the chimeric antibody to the antigen molecule competed with that of the original mouse monoclonal antibody thereto.

[1] = biological target: T2, human DLL3 expressed on cells (human …); test: flow cytometry on human DLL3/BaF3 cells, antibody 5 µg/ml
Protocol: The binding of each monoclonal antibody to human DLL3 expressed on a cell membrane and the behavior of a human DLL3-monoclonal antibody complex on the cell membrane were analyzed by flow cytometry. Human DLL3/BaF3 cells were suspended in a FACS buffer (PBS containing 1% fetal bovine serum and 0.05% sodium azide). The cell suspension of 1×10⁶ cells/ml was reacted with the monoclonal antibody (final concentration: 5 μg/ml) at 4° C. for 30 minutes. After centrifugation and supernatant removal, the cells were washed once with a FACS buffer. FITC-labeled anti-mouse IgG (H+L) antibodies (Beckman Coulter, Inc.) were added thereto and incubated at 4° C. for 30 minutes. Unreacted FITC antibodies were removed by centrifugation. Then, the cells were resuspended and analyzed using a flow cytometer FACSCalibur (Becton, Dickinson and Company). For the purpose of analyzing the movement or disappearance of the DLL3-antibody complex from the cell membrane, human DLL3/BaF3 cells were suspended in an RPMI1640 culture medium containing 10% fetal bovine serum (FBS) and mouse IL3. The cell suspension of 1×10⁶ cells/ml was mixed with the monoclonal antibody (final concentration: 5 μg/ml) and reacted at 37° C. for 1 hour or 4 hours in a CO2 incubator. After the reaction, the amount of the antibody bound onto the cell membrane was analyzed by flow cytometry in the same way as above. The geometric mean of fluorescence intensity values (X Geo Mean) in a cell histogram plot was determined using the analytical software CELLQuest Pro included in FACSCalibur. All the isolated anti-DLL3 monoclonal antibodies bound to DLL3 on the cells (FIG. 3(a)). The reaction of the antibody with the cells at 4° C. inhibits membrane fluidity such as the cellular uptake of the DLL3-antibody complex from the cell membrane. The reaction of the antibody with the cells at 37° C. may cause the cellular uptake of the DLL3-antibody complex and shading (release from the cell membrane) resulting from protease digestion or the like. The amount of each monoclonal antibody bound onto the cell membrane as a result of incubation at 37° C. for 1 hour or 4 hours is shown in FIG. 3(b) as a relative value compared with that at 4° C. As a result of incubation at 37° C., the amount of the antibody DL303, DL304, DL305, DL308, DL309, or MAB4315 on the surface of the cell membrane was decreased.

binding result (human DLL3-Fc)	binding result [1]	Binder
binds	binds	DL312 mouse monoclonal antibody (antibody, mouse IgG1, kappa, also called D312; DL312 mouse antibody) heavy: EVKLVESGGGLVQPGGSLSLSCAASGFTFTDYYMNWVRQPPGKALEWLALIRNKANGYTTEYNASVKGRFTISRDNSQNILYLQMNALRAEDSATYYCARDSDGYYEYYFDYWGQGTTLTVSSAKTTPPSVYPLAPGSAAQTNSMVTLGCLVKGYFPEPVTVTWNSGSLSSGVHTFPAVLQSDLYTLSSSVTVPSSTWPSETVTCNVAHPASSTKVDKKIVPRDCGCKPCICTVPEVSSVFIFPPKPKDVLTITLTPKVTCVVVDISKDDPEVQFSWFVDDVEVHTAQTQPREEQFNSTFRSVSELPIMHQDWLNGKEFKCRVNSAAFPAPIEKTISKTKGRPKAPQVYTIPPPKEQMAKDKVSLTCMITDFFPEDITVEWQWNGQPAENYKNTQPIMNTNGSYFVYSKLNVQKSNWEAGNTFTCSVLHEGLHNHHTEKSLSHSPGK light: DIQMTQSPSSLSASLGERVSLTCRASQEISDYLSWLQQKPDGTIKRLIFAASTLDSGVPKRFSGSRSGSDFSLSISSLESEDFADYYCLQYASYPYTFGSGTKLEIKRADAAPTVSIFPPSSEQLTSGGASVVCFLNNFYPKDINVKWKIDGSERQNGVLNSWTDQDSKDSTYSMSSTLTLTKDEYERHNSYTCEATHKTSTSPIVKSFNRNEC
binds	binds	DL309 mouse monoclonal antibody (antibody, mouse IgG1, kappa, also called DL309 mouse antibody) heavy: QVQLQQSGGDLMKPGASVKISCKAAGYTFSNYYIEWVKQRPGHGLEWIGEILPGSGSTTYNEKFKGKASFTADTSSNTAYMQLSSLTSEDSAVYYCARWGAREPGFPYWGQGTLVTVSAAKTTPPSVYPLAPGSAAQTNSMVTLGCLVKGYFPEPVTVTWNSGSLSSGVHTFPAVLQSDLYTLSSSVTVPSSTWPSETVTCNVAHPASSTKVDKKIVPRDCGCKPCICTVPEVSSVFIFPPKPKDVLTITLTPKVTCVVVDISKDDPEVQFSWFVDDVEVHTAQTQPREEQFNSTFRSVSELPIMHQDWLNGKEFKCRVNSAAFPAPIEKTISKTKGRPKAPQVYTIPPPKEQMAKDKVSLTCMITDFFPEDITVEWQWNGQPAENYKNTQPIMNTNGSYFVYSKLNVQKSNWEAGNTFTCSVLHEGLHNHHTEKSLSHSPGK light: DIVMTQSQKFMSTSVGDRVSVTCKASQNVGTNVAWYQQKPGQSPKALIYSASYRYSGVPDRFTGSGSGTDFTLTISNVQSEDLAEYFCQQYNNYPLTFGAGTKLELKRADAAPTVSIFPPSSEQLTSGGASVVCFLNNFYPKDINVKWKIDGSERQNGVLNSWTDQDSKDSTYSMSSTLTLTKDEYERHNSYTCEATHKTSTSPIVKSFNRNEC
binds	binds	DL301 mouse monoclonal antibody (antibody, mouse IgG1, kappa, also called DL301 mouse antibody) heavy: QVQLQQSGADLVRPGTSVKVSCKASGYAFTNYLIEWIKQRPGQGLEWIGVMNPGSGGTHYSEKFRGKATLTADKSSSTAYMQLISLTSDDSAVYFCARSDYDYVTYAMDYWGQGTSVTVSSAKTTPPSVYPLAPGSAAQTNSMVTLGCLVKGYFPEPVTVTWNSGSLSSGVHTFPAVLQSDLYTLSSSVTVPSSTWPSETVTCNVAHPASSTKVDKKIVPRDCGCKPCICTVPEVSSVFIFPPKPKDVLTITLTPKVTCVVVDISKDDPEVQFSWFVDDVEVHTAQTQPREEQFNSTFRSVSELPIMHQDWLNGKEFKCRVNSAAFPAPIEKTISKTKGRPKAPQVYTIPPPKEQMAKDKVSLTCMITDFFPEDITVEWQWNGQPAENYKNTQPIMNTNGSYFVYSKLNVQKSNWEAGNTFTCSVLHEGLHNHHTEKSLSHSPGK light: DIKMTQSPSSMYASLGERVTITCKASQDINSYLIWFQQKPGKSPKTLIYRTNRLVDGVPSRFSGSGSGQDYSLTISSLEYGDMGIYYCLQYDEFPFTFGSGTKLEIKRADAAPTVSIFPPSSEQLTSGGASVVCFLNNFYPKDINVKWKIDGSERQNGVLNSWTDQDSKDSTYSMSSTLTLTKDEYERHNSYTCEATHKTSTSPIVKSFNRNEC
binds	binds	DL306 mouse monoclonal antibody (antibody, mouse IgG1, kappa, also called DL306 mouse antibody) heavy: EVQLQQSGPELVKPGASVKMSCRASGYTFTDYYMKWVKQSHGKSLEWIGDINPNNGDTFYNQKFKGKATLTIDKSSSTAYMQLNSLTSDDSAVYYCARDGNYAYFDYWGQGTTLTVSSAKTTPPSVYPLAPGSAAQTNSMVTLGCLVKGYFPEPVTVTWNSGSLSSGVHTFPAVLQSDLYTLSSSVTVPSSTWPSETVTCNVAHPASSTKVDKKIVPRDCGCKPCICTVPEVSSVFIFPPKPKDVLTITLTPKVTCVVVDISKDDPEVQFSWFVDDVEVHTAQTQPREEQFNSTFRSVSELPIMHQDWLNGKEFKCRVNSAAFPAPIEKTISKTKGRPKAPQVYTIPPPKEQMAKDKVSLTCMITDFFPEDITVEWQWNGQPAENYKNTQPIMNTNGSYFVYSKLNVQKSNWEAGNTFTCSVLHEGLHNHHTEKSLSHSPGK light: DIVLTQSPASLAVSLGQRATISCRASKSVSTSGYSYMHWYQQKPGQPPKLLIFLASNLESGVPARFSGSGSGTDFTLNIHPVEEEDAATYYCQHSRHLPWTFGGGTKLEIKRADAAPTVSIFPPSSEQLTSGGASVVCFLNNFYPKDINVKWKIDGSERQNGVLNSWTDQDSKDSTYSMSSTLTLTKDEYERHNSYTCEATHKTSTSPIVKSFNRNEC
